In the supplement of paper PMC11780869:

Each sequence was assayed on Bacillus subtilis (assay: cleaved RNA product abundance (RNA/gDNA barcode ratio) relative to median wild-type variant (ratio to wild type); higher = more accumulation of the downstream cleavage product). Conditions: experiment (reporter, strain, medium): exp 2b: truncated aprE reporter, strain BJT200; cleavage site: cggR-gapA (positions -7 to +36 mutated).
Summary of the method: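 In LB at 37°C, B. subtilis cultures went from OD600 0.0003 to 0.3. Their chromosomes held barcoded reporter mRNAs, truncated aprE or tetM, with RNase Y cleavage-site windows mutagenized via oligos at a 9% error rate. Cleaved RNA, chosen by gel, was reverse transcribed and barcode-sequenced alongside genomic DNA barcodes with UMI collapsing, giving a per-construct RNA:gDNA ratio scaled to the median construct with the unmutated site. This scaled ratio is termed cleaved product abundance.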
For “ACAGACGAAGGAGCCGCTAAGAAGTTATTAAGGGATGAATAATTCCTCAATATAAATATCTCTCACTTATTTAAA”, the “cleaved RNA product abundance” value was 0.713. With “ACAGACGAAGGAGCCGCAAACAAGTTATTAAAGGATGAATAATCCCTCAATATAAATATCTCTCACTTATTTAAA” the “cleaved RNA product abundance” value was 0.121. In the case of “ACAGACGAAGGAGCCGCAAAGAAGTTGTTAAGGCATGAATAATCCCTCAATATAAATATCTCTCACTTATTTAAA”, the “cleaved RNA product abundance” value is reported as 0.103.

Same assay, conditions: experiment (reporter, strain, medium): exp 4a: truncated aprE reporter, strain BJT201 with 2% xylose (RNase J1 expressed); cleavage site: cggR-gapA (positions -7 to +36 mutated)
For “ACAGACGAAGGAGCCGCAAAGTAGTTATTAAAGGATGAATAATCCATCAATATAAATATCTCTCACTTATTTAAA”, the “cleaved RNA product abundance” value was 0.153. With “ACAGACGAAGGAGCCGCAAAGAAGTTATTAAGGGATGAATAATCCCGCAATATATATATCTCTCACTTATTTAAA” the “cleaved RNA product abundance” value was 0.139. In the case of “ACAGACGAAGGAGCCGCAAAGAAGTTATTAAGGGATGAATAATCCCTCAAAAAAAATATCTCTCACTTATTTAAA”, the “cleaved RNA product abundance” value is reported as 0.0713. With “ACAGACGAAGGAGCCGCAAACAAGTTATTAAAGGATGAATAATCCCTCAATATAAATATCTCTCACTTATTTAAA” the “cleaved RNA product abundance” value was 0.116. In the case of “ACAGACGAAGGAGCCGCTAAGAAGTTATTAAGGGATAAATAATCCCTCAATATAAATATCTCTCACTTATTTAAA”, the “cleaved RNA product abundance” value is reported as 1.15. In the case of “ACAGACGAAGGAGCCGCAAAGAAGTTATTAAGGGACGAATAATCCCTCCATATAAATATCTCTCACTTATTTAAA”, the “cleaved RNA product abundance” value is reported as 0.255.

Same assay, conditions: experiment (reporter, strain, medium): exp 8a: truncated aprE reporter, strain BJT201 with 2% xylose (RNase J1 expressed); cleavage site: glnRA (positions -5 to +31 mutated)
For “CGACATGTCCCGCTTCTTTCATTAACCCGTTAGCAACTTTTTTGCTATATACATTTACCTTTTAAGAGGAGGAAT”, the “cleaved RNA product abundance” value was 0.909. “CGACATGTCCCGCTTCTTTCATTAATCCGTTAGCATCTGTTTTGCTATATACATATACCTTTTAAGAGGAGGAAT” was tested, and the “cleaved RNA product abundance” value was 0.727. For “CGACATGTCCCGCTTCTTTCATTAATCCGTTAGCAACTGTTTTGATATATACATTTGCCTTTTAAGAGGAGGAAT”, the “cleaved RNA product abundance” value was 0.378. With “CGACATGTCCCGCTTCTTTCATTAATCCGTTAGCAACTGTATTGCTATATACATTTACCTTTTAAGAGGAGGAAT” the “cleaved RNA product abundance” value was 0.943. With “CGACATGTCCCGCTTCTTTCATTACTCCGTTAGCAACTGTTTTTCTATTTACATTTACCTTTTAAGAGGAGGAAT” the “cleaved RNA product abundance” value was 0.151.
